Measurements reported in article PMC9170038, “Crowdsourced RNA design discovers diverse, reversible, efficient, self-contained molecular switches”.

These binders were tested against T1, MS2 coat protein, dlFG mutant (Escherichia phage MS2, UniProt P03612, del68-81insG) (assay: 4 mM Mg2+; theophylline 2 mM; RNA-MaP array; 100 mM Tris-HCl pH 7.5, 80 mM KCl, 4 mM MgCl2, 0.1 mg/mL BSA, 1 mM DTT, 0.01 mg/mL yeast tRNA, 0.01% Tween-20; protein 1.5 nM to 3 uM; 37 C (Table S3)). Conditions: chain copies: 2; label: tethered by stalled RNA polymerase.

Binder | Kd
Eterna 7634493 (Same State - Theophylline A) (ssRNA) RNA: ACAUGAGGAUCACCCAUGUCUGCCACUGAUACCAGCGGAAGAAAACGCCCUUGGCAGCAGAACAUGAGGAUCACCCAUGUAGGCU | 0.188 µM

What follows are binders tested against T1, MS2 coat protein, dlFG mutant (assay: 4 mM Mg2+; miR-208a RNA 100 nM (AU…UUGU); RNA-MaP array; 100 mM Tris-HCl pH 7.5, 80 mM KCl, 4 mM MgCl2, 0.1 mg/mL BSA, 1 mM DTT, 0.01 mg/mL yeast tRNA, 0.01% Tween-20; protein 1.5 nM to 3 uM; 37 C (Table S3)). Conditions: chain copies: 2; label: tethered by stalled RNA polymerase.

Binder | Kd
Eterna 10033 (Sensor v3, turn-off variant 2) (ssRNA) RNA: ACUAGCGAAAUGCUCGUCUUAUUUUUGUAGAGGUUCUAAACAUGAGGAUCACCCAUGUAGUGGUUUUUGUGGAGGUA | 0.265 µM

The binders below were run against T1, MS2 coat protein, dlFG mutant (assay: 4 mM Mg2+; no ligand; RNA-MaP array; 100 mM Tris-HCl pH 7.5, 80 mM KCl, 4 mM MgCl2, 0.1 mg/mL BSA, 1 mM DTT, 0.01 mg/mL yeast tRNA, 0.01% Tween-20; protein 1.5 nM to 3 uM; 37 C (Table S3)). Conditions: chain copies: 2; label: tethered by stalled RNA polymerase.

Binder | Kd
Eterna 5998949 (Sensor, turn-off variant 1) (ssRNA) RNA: UUUCCGGCGCGGGUUUUUUACAUGAGGAUCACCCAUGUCCUCUGCUUGUCUUGUCUUGGGCUUUUUUUGGGUUCGGG | 0.798 µM
Eterna 7720201 (Exclusion - Theophylline B) (ssRNA) RNA: CCUAUCUCAUACGAUACCAGUCUACGAUAUUUUAUCGUUGCCAACACCGAGUGAUGUUCGGACCCUUGGCAGCGUAUGGGAUAGG | > 3 µM
Eterna 1257 (Exclusion - Tryptophan B) (ssRNA) RNA: CUGUUUUAGUCGGCCGCCACUGCAAGUGAUGUUUGGAGUAUUAUGCCGUUUCUGUCCAUUGAACCCAGGACCGGGACCGGAUCGU | > 3 µM
Eterna 1521 (Same State - FMN A) (ssRNA) RNA: CGUAAGGAUUGACGACUGCAGAGCAAAAUAAAGGAUAUCGCAGCGUCGAGAAGGUUAUCGUGCGCCAGUGAUGUUGGCGGUAGUC | > 3 µM
Eterna 7695377 (Same State - Theophylline A) (ssRNA) RNA: UCUUAACUAAAAUAAUGGGAUACCAGUGAUACCAGCCAUAUGCAGGGCCCUUGGCAGCACCCUUGGCAGCCUCGAGUGAUGUUCG | > 3 µM
UUUCAGGGCAGUGAUGUUGCCCUCUUU (ssRNA) [Eterna 9 (K4-7bp_control)] | > 3 µM
Eterna 6417730 (Small Loop Same State NG 3) (ssRNA) RNA: ACAUGAGGAUCUCCCAUGUAAAAUUAGGAUAUAUAACUGCACAUGAGGAUCACCCAUGUUUAACCGUAGAAGGGAUAAAUAAUU | 1.1 µM
Eterna 1188 (Exclusion - Theophylline B) (ssRNA) RNA: AGCUGCCGAAUAGAUACCAGUGUCUUUAGUGAUGUUUCAGAGCUGGCACGAUCAGAAGGUCACCCUUGGCAGCUAGUGCCAGCGU | > 3 µM
Eterna 5988416 (Sensor, turn-off variant 1) (ssRNA) RNA: UCACAAGCUGUGGGUGGUGACAUGAGGAUCACCCAUGUUUUGCUCGUCUUGUGCCGGGCCCGGCGCCCGGGCCCGGC | 1.08 µM
Eterna 7705565 (Exclusion - FMN A) (ssRNA) RNA: AGACUACCACACUGUCAAUAGACAGUGAACUAGGAUAUGCUGAUAAGCAGAAGGAGUGAUGUUCCUAAAGGUAGUCAAAUAUAAU | > 3 µM
Eterna 7709687 (Same State - Tryptophan B) (ssRNA) RNA: UAUUAAGUGACGGCCGCCACUAUGGUGAUUUAUUUGUUUGAGUGAUGUUUUGAUGUUUGAUUUUGUAGGACCGGGUUAUGUGUUA | > 3 µM
Eterna 1174 (Exclusion - Theophylline B) (ssRNA) RNA: GCUGUCCAGUUCGAUACCAGAGUUAUCGCACUGUAGUGAUAAAGUGAUGUUUUAUCAGUCCUCCCUUGGCAGCGAUGCCCGGCUG | > 3 µM

The binders below were run against T1, MS2 coat protein, dlFG mutant (assay: 4 mM Mg2+; FMN 200 uM; RNA-MaP array; 100 mM Tris-HCl pH 7.5, 80 mM KCl, 4 mM MgCl2, 0.1 mg/mL BSA, 1 mM DTT, 0.01 mg/mL yeast tRNA, 0.01% Tween-20; protein 1.5 nM to 3 uM; 37 C (Table S3)). Conditions: chain copies: 2; label: tethered by stalled RNA polymerase.

Binder | Kd
Eterna 6429508 (Inverted Exclusion NG 3) (ssRNA) RNA: GGGUGCCCUGCAGAAGCGACAUGAGGAUCACCCAUGUAACGUAGAAGGGCCCGGAACUAAGGUGGGCAGGAUAUACUGUUAGGU | 0.00724 µM
Eterna 6429692 (Inverted Same State NG 1) (ssRNA) RNA: AUCAUGCUCAAGAAGGACAUGAGGAUCACCCAUGUAGGAUAUUGGGCGGUCACUUCUAGCUUGUGUGUAUCUGAAUACUCCAGG | 0.00754 µM
